# From US12252711B2, “Osteoporosis model comprising calcium phosphate hydrogel composition and use thereof” (MEDIFAB CO., LTD., priority 2019, dated 2025)
# B1: Rankl (protein, UniProt O14788 140-317, looked up)
# Tumor necrosis factor ligand …: IRAEKAMVDGSWLDLAKRSKLEAQPFAHLTINATDIPSGSHKVSLSSWYHDRGWAKISNMTFSNGKLIVNQDGFYYLYANICFRHHETSGDLATEYLQLMVYVTKTSIKIPSSHTLMKGGSTKYWSGNSEFHFYSINVGGFFKLRSGEEISIEVSNPSLLDPDQDATYFGAFKVRDID
# notes: 100 ng/ml of Rankl added to growth media
# Legend:
# Format in all cases: cell-based
# RAW264.7 cells = assay: Differentiation of osteoclast progenitor culture mass in biogel (ACP/ALP assay, TRAP staining); conditions: RAW264.7 in biogel, 100 ng/ml Rankl, compared to control group (GM)
# Procedure: 8-2. Culturing of Osteoclasts Osteoclast progenitor cells RAW264.7 were mixed with the biogel prepared in Example 6, in amounts of 5×10^5 cells/ml, 7×10^5 cells/ml, 1×10^6 cells/ml, and 3×10^6 cells/ml, and 100 μL of each of the resulting mixture liquids was gelled using a casting gel, to consequently yield three-dimensional culture mass, each containing 5×10^4 cells, 7×10^4 cells, 1×10^5 cells, 3×10^5 cells, and […]. Then, the three-dimensional culture mass were three-dimensionally cultured for 7 days in osteoclast media, which were formed by adding 100 ng/ml of Rankl to growth media containing α-MEM (Welgene, Korea) supplemented with 10% fetal bovine serum (FBS) (Gibco, USA), 100 U/ml of penicillin (Welgene, Korea), and […] of streptomycin (Welgene, Korea). Then, using ACP assay kit (Abcam, ab83367) and TRAP staining kit (Sigma, 181A), differences in the expression level of osteoclast differentiation factor were examined at different cell numbers. […]
# (§1) Subsequently, on day 3 and day 7 of culturing, the MC3T3-E1 cells were measured for the osteoclast differentiation marker ACP, and the RAW264.7 cells were measured for the osteoblast differentiation marker ALP, to determine the influence of their respective differentiation markers on each other.
# MC3T3-E1 cells = assay: Differentiation of osteoblast progenitor culture mass in biogel (ALP/ACP assay, ALP staining); conditions: day 3 and day 7
# Procedure: Osteoblasts progenitor cells, MC3TC-E1 were mixed with the biogel prepared in Example 6, in amounts of […], and 100 μL of each of the resulting mixture solution was gelled using a casting gel, to consequently yield three-dimensional culture mass, each containing 7×10^3 and 1×10^5 cells. Then, the three-dimensional culture mass were three-dimensionally cultured for 7 days in osteoblast media, which were formed by adding 10 mM of β-glycerophosphate (Sigma Aldrich, USA), 50 μg/ml of ascorbic acid (Sigma Aldrich, USA), and 10 nM of dexamethasone (Sigma Aldrich, USA) to growth media supplemented with α-MEM (Welgene, Korea) supplemented with 10% fetal bovine serum (FBS) (Gibco, USA), 100 U/ml of penicillin (Welgene, Korea), and […] of streptomycin (Welgene, Korea). Thereafter, on day 3 and day 7 of culturing, differences in the expression level of ALP protein, which is an early osteoblast differentiation factor, were examined at different cell densities of culture mass, using ALP assay kit (Abcam, ab83369) and ALP staining kit (Sigma, P5869). […]
# as §1
# [1] = test system: MC3T3-E1 cells and RAW264.7 cells co-culture; assay: Differentiation in 3D co-culture mass in biogel (ALP and ACP assay, ALP and TRAP staining)
# Procedure: In detail, after dissolving 0.5% agarose in 300 mM CaCl2 solution, the Phenol Red solution was added in an amount of 5 mg/L to produce a casting gel solution. Then, after introducing 5-5.5 ml of the casting gel solution into a casting tray, a three-dimensional semi-spherical casting mold was inserted in the casting tray, and after completely solidifying the casting gel solution, the casting mold was carefully removed to produce a three-dimensional semi-spherical casting gel mold. The biogel, 1×10^5 cells/ml of osteoblast progenitor cells MC3T3-E1, and 5×10^4 cells/ml of osteoclast progenitor cells RAW264.7, were introduced into the casting gel mold and subjected to gelation to yield a three-dimensional co-culture mass. Then, the co-culture mass was cultured in the following media: media treated only with an osteoblast differentiation induction factor (+3F); media only treated with an osteoclast differentiation induction factor (+R); and media treated with both osteoblast differentiation induction factor and osteoclast differentiation induction factor (+3F+R). Then, osteoblast differentiation profiles were characterized through ALP expression levels.
# 9-2. Creating the bone resorption environment through co-culture of osteoblasts and osteoclasts Under the same conditions as shown in Example 9-1, osteoclast differentiation profiles were characterized by […].
molecule,measurement,setting,value
B1,expression of osteoclast differentiation factor ACP,RAW264.7 cells,increased
same,expression of osteoblast differentiation marker ALP,MC3T3-E1 cells,little expression
same,expression of osteoclast differentiation marker ACP,MC3T3-E1 cells,little expression
same,ALP expression (osteoblast differentiation),[1]; combined treatment compared with osteoblast factor only,trace amount
same,ACP expression (osteoclast differentiation),"[1]; day 3 and day 7, combined treatment compared with osteoclast factor only",increased
